Experimental data: FireProtDB (doi:10.1046/j.1432-1327.1999.00751.x)
“And” between values parts separate entries of the source, which are not always exact repeats. Equal values may be shown once.

B1: Azurin, P00282 (parent)
chain: MLRKLAAVSLLSLLSAPLLAAECSVDIQGNDQMQFNTNAITVDKSCKQFTVNLSHPGNLPKNVMGHNWVLSTAADMQGVVTDGMASGLDKDYLKPDDSRVIAHTKLIGSGEKDSVTFDVSKLKEGEQYMFFCTFPGHSALMKGTLTLK

Variants of: B1
Details: Pseudomonas aeruginosa (strain ATCC 15692 / DSM 22644 / CIP 104116 / JCM 14847 / LMG 12228 / 1C / PRS 101 / PAO1); pH 7.2; 20 °C; GdnHCl; CD + Fluorescence; Tris-HCl 50 mM; reversible: yes; structure 5AZU; whole UniProt chain shown

| Variant | ddG of mutation (higher = less stable) | denaturant m value | denaturant midpoint (higher = more stable) | unfolding free energy |
| --- | --- | --- | --- | --- |
| MLRKLAAVSLLSLLSAPLLAAECSVDSQGNDQMQFNTNAITVDKSCKQFTVNLSHPGNLPKNVMGHNWVLSTAADMQGVVTDGMASGLDKDYLKPDDSRVIAHTKLIGSGEKDSVTFDVSKLKEGEQYMFFCTFPGHSALMKGTLTLK [I27S] | 3.6 kcal/mol and 3 kcal/mol | 3.6 kcal/mol/M and 3.4 kcal/mol/M | 1.61 M and 1.02 M | 5.8 kcal/mol and 3.4 kcal/mol |
| MLRKLAAVSLLSLLSAPLLAAECSVDIQGNDQMQFNTNAITVDKSCKQFTVNLSHPGNLPKNVMGHNWVLSTAADMQGVVTDGMASGLDKDYLKPDDSRVIAHTKLIGSGEKDSVTFDVSKLKEGEQYMSFCTFPGHSALMKGTLTLK [F130S] | 4.6 kcal/mol and 3.7 kcal/mol | 3.6 kcal/mol/M and 3.2 kcal/mol/M | 1.24 M and 0.86 M | 4.8 kcal/mol and 2.7 kcal/mol |
